In paper PMC4459029, “Effects of receptor tyrosine kinase inhibitors on VEGF165a- and VEGF165b-stimulated gene transcription in HEK-293 cells expressing human VEGFR2” (British Journal of Pharmacology, 2015):
Where “and” joins values, the source holds several entries; their conditions need not be identical. Equal values may be shown once.

Legend:
[1] = test system: basal NFAT-luciferase activity; experiment: basal NFAT-luciferase production in VEGFR2 NFAT cells; type: cell-based, human; conditions: no VEGF; P < 0.05 one way ANOVA
Source text: HEK-293 cells expressing the human VEGFR2 and an NFAT reporter gene were provided by Promega Corporation. The NFAT reporter gene contained an NFAT response element linked via a minimal promoter to the firefly luciferase gene luc2P containing a human sequence enriched in proline (P), glutamic acid (E), serine (S) and threonine (T) protein destabilization sequence (Voon et al., [2005]). VEGFR2 NFAT cells were maintained in DMEM media supplemented with 10% FCS and 0.5% G418 in a humidified 5% CO2/95% air atmosphere at 37°C.
VEGFR2 NFAT cells were seeded in a T75 flask at 5 × 10^6 cells per flask using DMEM +10%FCS and incubated at 37°C in a 5% CO2/95% air atmosphere for 3 days until the cells were 100% confluent. On the fourth day, cells were washed with PBS and detached using 3 mL Versene® (ETDA 0.02% in PBS). Once cells had detached, 6 mL of DMEM +0.1%BSA was added and the cells were counted using a haemocytometer. […] After the 5 h incubation, 100 μL ONE-Glo Luciferase Assay reagent was added to each well and luminescence was measured according to the manufacturer's instructions on a Topcount platereader (Perkin Elmer, Llantrisant, UK).

human VEGFR2 = molecular target: T1, human VEGFR2 (Homo sapiens, UniProt P35968); experiment: VEGFR2-stimulated NFAT-luciferase reporter gene activity in HEK-293 cells; type: cell-based
T1 construct: host or cells: HEK-293
Procedure: HEK-293 cells expressing the human VEGFR2 and an NFAT reporter gene were provided by Promega Corporation.
On the fourth day, cells were washed with PBS and detached using 3 mL Versene® (ETDA 0.02% in PBS). Once cells had detached, 6 mL of DMEM +0.1%BSA was added and the cells were counted using a haemocytometer. Cells were centrifuged at 200× g for 5 min, resuspended in DMEM +0.1%BSA and seeded at a density of 4 × 10^4 cells per well in 80 μL DMEM +0.1%BSA in white-sided, clear flat-bottomed 96-well plates (Greiner, Stonehouse, UK), which had been coated with 0.01 mg·mL^−1 poly-D-lysine in PBS for 30 min and washed with DMEM. […] After the 5 h incubation, 100 μL ONE-Glo Luciferase Assay reagent was added to each well and luminescence was measured according to the manufacturer's instructions on a Topcount platereader (Perkin Elmer, Llantrisant, UK).
All data were fitted using non-linear regression in Prism 6 (GraphPad Software, San Diego, CA, USA).
A comparison of the extra sum of squares that resulted from the analysis with separate EC50 or Emax values (over that with one of the parameters shared) using the F-test (Prism 6) then allowed for statistical analysis of the difference between EC50 or Emax values. […]

T1 sequence (P35968 20-1356): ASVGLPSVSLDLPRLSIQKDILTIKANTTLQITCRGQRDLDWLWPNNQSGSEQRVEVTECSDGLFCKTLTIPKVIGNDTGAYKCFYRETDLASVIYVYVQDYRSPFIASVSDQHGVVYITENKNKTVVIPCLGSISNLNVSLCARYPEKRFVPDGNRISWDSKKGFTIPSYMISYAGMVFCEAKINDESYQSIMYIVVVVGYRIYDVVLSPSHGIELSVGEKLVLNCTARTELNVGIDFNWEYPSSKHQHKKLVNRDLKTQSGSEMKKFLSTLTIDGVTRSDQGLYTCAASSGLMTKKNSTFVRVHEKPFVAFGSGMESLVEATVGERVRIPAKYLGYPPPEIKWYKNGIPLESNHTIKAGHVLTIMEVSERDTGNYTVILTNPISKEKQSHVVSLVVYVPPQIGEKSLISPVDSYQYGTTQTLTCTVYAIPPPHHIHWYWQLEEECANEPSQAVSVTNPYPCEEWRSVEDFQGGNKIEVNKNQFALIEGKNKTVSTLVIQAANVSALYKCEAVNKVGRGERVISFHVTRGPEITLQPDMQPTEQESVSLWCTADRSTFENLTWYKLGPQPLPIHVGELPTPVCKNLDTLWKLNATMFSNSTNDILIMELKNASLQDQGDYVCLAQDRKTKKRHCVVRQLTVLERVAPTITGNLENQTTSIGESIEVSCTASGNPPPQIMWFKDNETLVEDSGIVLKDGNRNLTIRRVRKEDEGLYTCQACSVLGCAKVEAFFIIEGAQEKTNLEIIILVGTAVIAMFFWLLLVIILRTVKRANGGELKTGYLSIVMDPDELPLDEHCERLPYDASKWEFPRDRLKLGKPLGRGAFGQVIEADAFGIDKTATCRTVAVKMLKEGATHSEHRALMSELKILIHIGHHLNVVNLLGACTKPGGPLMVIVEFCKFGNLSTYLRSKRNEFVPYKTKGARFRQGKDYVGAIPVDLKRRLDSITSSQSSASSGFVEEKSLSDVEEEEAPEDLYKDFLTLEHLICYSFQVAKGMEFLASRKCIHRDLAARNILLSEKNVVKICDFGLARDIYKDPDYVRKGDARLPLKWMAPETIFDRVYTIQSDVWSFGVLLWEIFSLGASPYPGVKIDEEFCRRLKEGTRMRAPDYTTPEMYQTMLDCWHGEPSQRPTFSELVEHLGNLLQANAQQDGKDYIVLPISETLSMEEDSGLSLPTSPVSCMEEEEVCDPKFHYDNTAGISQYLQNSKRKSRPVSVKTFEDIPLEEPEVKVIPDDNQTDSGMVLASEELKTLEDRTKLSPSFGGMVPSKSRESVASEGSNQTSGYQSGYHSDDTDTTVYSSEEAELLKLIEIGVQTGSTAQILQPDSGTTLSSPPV

## COc1cc2c(Oc3ccc4[nH]c(C)cc4c3F)ncnc2cc1OCCCN1CCCC1 [Cediranib]
[1]
  concentration giving significant inhibition of basal NFAT-luciferase response: above 10 nM

B1: VEGF165b: VEGF-A exon 8 splice variant, lower-efficacy partial agonist at VEGFR2, from R&D systems (protein)
chain: APMAEGGGQNHHEVVKFMDVYQRSYCHPIETLVDIFQEYPDEIEYIFKPSCVPLMRCGGCCNDEGLECVPTEESNITMQIMRIKPHQGQHIGEMSFLQHNKCECRPKKDRARQENPCGPCSERRKHLFVQDPQTCKCSCKNTDSRCKARQLELNERTCRSLTRKD
modifications: disulfide-linked homodimer; natural exon 8b splice isoform (VEGF165b); limits are the mature chain after removal of the 26-residue signal pep
Human VEGFR2; agonist-stimulated NFAT-luciferase response, 5 h incubation
  −Log EC50: 9.21 ± 0.08
Human VEGFR2; partial agonist fit
  pKA at VEGFR2 (operational model): 8.83 and 8.8
